The values that follow are results of earlier work, collected in paper PMC9697831.

Data set [1] addresses Kv1.3 (Homo sapiens) (UniProt P22001).
For data set [2] the target is unchanged. The source holds these as a separate data set.

Like-named read-outs stand apart in the source and are kept apart here.

Kv1.3 (Homo sapiens), sequence (P22001 whole entry): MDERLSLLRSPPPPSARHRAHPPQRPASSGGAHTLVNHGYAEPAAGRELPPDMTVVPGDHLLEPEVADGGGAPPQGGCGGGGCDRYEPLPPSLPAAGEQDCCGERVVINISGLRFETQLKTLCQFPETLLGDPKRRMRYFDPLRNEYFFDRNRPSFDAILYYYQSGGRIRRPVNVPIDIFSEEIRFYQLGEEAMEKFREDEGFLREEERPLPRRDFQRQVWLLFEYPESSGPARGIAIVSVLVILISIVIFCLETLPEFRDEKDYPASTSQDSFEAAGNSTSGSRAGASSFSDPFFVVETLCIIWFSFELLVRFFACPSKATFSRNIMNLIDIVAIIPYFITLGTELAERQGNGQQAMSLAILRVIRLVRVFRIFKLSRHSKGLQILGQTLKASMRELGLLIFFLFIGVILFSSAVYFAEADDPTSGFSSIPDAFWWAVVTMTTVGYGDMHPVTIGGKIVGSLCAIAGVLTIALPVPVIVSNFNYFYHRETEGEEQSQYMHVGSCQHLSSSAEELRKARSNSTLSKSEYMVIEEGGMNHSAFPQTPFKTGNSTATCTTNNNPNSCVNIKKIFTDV
Anuroctoxin, sequence (P0C166 whole entry): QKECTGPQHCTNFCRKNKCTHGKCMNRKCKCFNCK
Ts6, sequence (P59936 23-62): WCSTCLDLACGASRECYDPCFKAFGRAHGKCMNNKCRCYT

As to Anuroctoxin (from UniProt P0C166), in the data set with Kv1.3 (Homo sapiens) [1], the equilibrium dissociation constant (Kd) was 0.73 nM. Regarding Ts6 (from UniProt P59936), in the data set with Kv1.3 (Homo sapiens) [2], the Kd is 0.55 nM.
